Measurements published in publication PMC3316571.

Target: Notch-1 (endogenous; p300 or p120 not told) (human (endogenous in HeLa and BxPC3)) (UniProt P46531)
Assay: co-IP; HA-tagged c-Src wild type, Y416F or Y527F transiently transfected in HeLa; whole-cell lysate, IP with anti-Notch-1, blot with anti-HA and anti-Notch-1

**Q.** How did the fold reduction of binding against wild type c-Src turn out when “HA-tagged c-Src Y416F (kinase dead) (enzyme)” was run?
**A.** > 3 fold
